# Non-standard residues stand in square brackets, D forms with d. No end group written: not given here. Cha = N[C@@H](CC1CCCCC1)C(=O)O; 14 = not defined here
# B1: 906.04 (peptide)
# peptide: [dA]V[Cha]AAAATLKAA[dA]-NH2
# modifications: N-terminus assumed
# SMILES: CC(C)C[C@H](NC(=O)[C@@H](NC(=O)[C@H](C)NC(=O)[C@H](C)NC(=O)[C@H](C)NC(=O)[C@H](C)NC(=O)[C@H](CC1CCCCC1)NC(=O)[C@@H](NC(=O)[C@@H](C)N)C(C)C)[C@@H](C)O)C(=O)N[C@@H](CCCCN)C(=O)N[C@@H](C)C(=O)N[C@@H](C)C(=O)N[C@H](C)C(N)=O
# B2: 906.16 (peptide)
# peptide: [dA]A[Cha]AVAATLKAA[dA]-NH2
# modifications: N-terminus assumed
# SMILES: CC(C)C[C@H](NC(=O)[C@@H](NC(=O)[C@H](C)NC(=O)[C@H](C)NC(=O)[C@@H](NC(=O)[C@H](C)NC(=O)[C@H](CC1CCCCC1)NC(=O)[C@H](C)NC(=O)[C@@H](C)N)C(C)C)[C@@H](C)O)C(=O)N[C@@H](CCCCN)C(=O)N[C@@H](C)C(=O)N[C@@H](C)C(=O)N[C@H](C)C(N)=O
# B3: 906.17 (peptide)
# peptide: [dA]A[Cha]AFAATLKAA[dA]-NH2
# modifications: N-terminus assumed
# SMILES: CC(C)C[C@H](NC(=O)[C@@H](NC(=O)[C@H](C)NC(=O)[C@H](C)NC(=O)[C@H](Cc1ccccc1)NC(=O)[C@H](C)NC(=O)[C@H](CC1CCCCC1)NC(=O)[C@H](C)NC(=O)[C@@H](C)N)[C@@H](C)O)C(=O)N[C@@H](CCCCN)C(=O)N[C@@H](C)C(=O)N[C@@H](C)C(=O)N[C@H](C)C(N)=O
# B4: 906.18 (peptide)
# peptide: [dA]A[Cha]AAKATLKAA[dA]-NH2
# modifications: N-terminus assumed
# SMILES: CC(C)C[C@H](NC(=O)[C@@H](NC(=O)[C@H](C)NC(=O)[C@H](CCCCN)NC(=O)[C@H](C)NC(=O)[C@H](C)NC(=O)[C@H](CC1CCCCC1)NC(=O)[C@H](C)NC(=O)[C@@H](C)N)[C@@H](C)O)C(=O)N[C@@H](CCCCN)C(=O)N[C@@H](C)C(=O)N[C@@H](C)C(=O)N[C@H](C)C(N)=O
# B5: 906.20 (peptide)
# peptide: [dA]A[Cha]AAQATLKAA[dA]-NH2
# modifications: N-terminus assumed
# SMILES: CC(C)C[C@H](NC(=O)[C@@H](NC(=O)[C@H](C)NC(=O)[C@H](CCC(N)=O)NC(=O)[C@H](C)NC(=O)[C@H](C)NC(=O)[C@H](CC1CCCCC1)NC(=O)[C@H](C)NC(=O)[C@@H](C)N)[C@@H](C)O)C(=O)N[C@@H](CCCCN)C(=O)N[C@@H](C)C(=O)N[C@@H](C)C(=O)N[C@H](C)C(N)=O
# B6: 906.30 (peptide)
# peptide: [dA]A[Cha]AAAATEKAA[dA]-NH2
# modifications: N-terminus assumed
# SMILES: C[C@H](NC(=O)[C@H](C)NC(=O)[C@H](C)NC(=O)[C@H](CC1CCCCC1)NC(=O)[C@H](C)NC(=O)[C@@H](C)N)C(=O)N[C@@H](C)C(=O)N[C@H](C(=O)N[C@@H](CCC(=O)O)C(=O)N[C@@H](CCCCN)C(=O)N[C@@H](C)C(=O)N[C@@H](C)C(=O)N[C@H](C)C(N)=O)[C@@H](C)O
# B7: 906.50 (peptide)
# peptide: [dA]A[Cha]AAAATLKAF[dA]-NH2
# modifications: N-terminus assumed
# SMILES: CC(C)C[C@H](NC(=O)[C@@H](NC(=O)[C@H](C)NC(=O)[C@H](C)NC(=O)[C@H](C)NC(=O)[C@H](C)NC(=O)[C@H](CC1CCCCC1)NC(=O)[C@H](C)NC(=O)[C@@H](C)N)[C@@H](C)O)C(=O)N[C@@H](CCCCN)C(=O)N[C@@H](C)C(=O)N[C@@H](Cc1ccccc1)C(=O)N[C@H](C)C(N)=O
# Legend:
# [1] = target: T1, mouse class II IA^k, purified from CH12 cells (mouse), P01910; test: 125I-peptide inhibition, purified class II
# T1 chain 1: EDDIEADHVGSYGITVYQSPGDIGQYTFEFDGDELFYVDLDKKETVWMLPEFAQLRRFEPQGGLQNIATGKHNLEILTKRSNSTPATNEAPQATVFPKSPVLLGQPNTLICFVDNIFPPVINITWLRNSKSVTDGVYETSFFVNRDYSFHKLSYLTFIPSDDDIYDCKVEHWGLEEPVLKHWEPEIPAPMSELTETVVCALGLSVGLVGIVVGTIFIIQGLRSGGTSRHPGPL
# T1 chain 2: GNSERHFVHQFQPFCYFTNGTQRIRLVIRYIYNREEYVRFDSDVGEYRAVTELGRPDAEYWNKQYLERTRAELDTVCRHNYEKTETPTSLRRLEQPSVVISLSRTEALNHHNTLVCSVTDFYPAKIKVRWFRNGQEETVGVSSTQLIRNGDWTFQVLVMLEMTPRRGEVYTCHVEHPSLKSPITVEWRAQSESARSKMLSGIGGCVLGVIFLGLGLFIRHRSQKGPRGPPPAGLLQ
# [2] = target: mouse class II IE^k, purified from CH12 cells (mouse); test: 125I-peptide inhibition, purified class II
# [3] = target: mouse class II IA^s, purified from LS102.9 cells (mouse); test: 125I-peptide inhibition, purified class II
# [4] = target: T2, HLA-DR4w4 (DRB1*0401), purified from PREISS cells (human); test: 125I-peptide inhibition, purified class II
# T2 chain 1: not shown
# T2 chain 2: not shown
# [5] = target: T3, HLA-DR7 (DRB1*0701), purified from PITOUT cells (human); test: 125I-peptide inhibition, purified class II
# T3 chain 1: not shown
# T3 chain 2: not shown
# [6] = target: HLA-DR1 (DRB1*0101), purified from LG2 cells (human); test: 125I-peptide inhibition, purified class II
# [7] = target: T4, HLA-DRw53 (DRB4*0101), purified from L257.6 transfected fibroblasts (human); test: 125I-peptide inhibition, purified class II
# T4 chain 1: not shown
# T4 chain 2: not shown
# [8] = target: T5, HLA-DR5 (DRB1*11011), purified from SWEIG cells (human); test: 125I-peptide inhibition, purified class II
# T5 chain 1: not shown
# T5 chain 2: not shown
# [9] = target: T6, mouse class II IA^b, purified from DB27.4 cells (mouse), P14434; test: 125I-peptide inhibition, purified class II
# T6 chain 1: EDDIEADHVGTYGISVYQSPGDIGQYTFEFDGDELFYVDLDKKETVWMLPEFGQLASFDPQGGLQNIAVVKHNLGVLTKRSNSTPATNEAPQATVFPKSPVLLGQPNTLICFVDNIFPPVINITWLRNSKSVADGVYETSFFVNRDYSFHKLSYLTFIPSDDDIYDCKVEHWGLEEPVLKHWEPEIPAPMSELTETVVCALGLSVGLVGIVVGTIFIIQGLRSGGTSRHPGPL
# T6 chain 2: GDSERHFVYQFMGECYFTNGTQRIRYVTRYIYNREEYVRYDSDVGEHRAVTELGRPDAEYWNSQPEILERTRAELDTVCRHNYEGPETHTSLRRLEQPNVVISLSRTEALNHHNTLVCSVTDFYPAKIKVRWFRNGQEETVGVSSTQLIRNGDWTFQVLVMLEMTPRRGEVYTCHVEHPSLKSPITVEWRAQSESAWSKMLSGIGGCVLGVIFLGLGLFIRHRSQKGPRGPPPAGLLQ
# [10] = target: mouse class II IE^d, purified from A20 cells (mouse); test: 125I-peptide inhibition, purified class II
# [11] = target: T7, HLA-DR3 (DRB1*0301), purified from MAT cells (human); test: 125I-peptide inhibition, purified class II
# T7 chain 1: not shown
# T7 chain 2: not shown
# [12] = target: T8, HLA-DR5 (DRB1*11011), purified from cell line SWEIG (human); test: competition vs 125I-peptide, purified class II MHC
# T8 chain 1: not shown
# T8 chain 2: not shown
# [13] = target: T9, HLA-DR3 (DRB1*0301), purified from cell line MAT (human); test: competition vs 125I-peptide, purified class II MHC
# T9 chain 1: not shown
# T9 chain 2: not shown
# [14] = target: T10, HLA-DR4w4 (DRB1*0401), purified from cell line PREISS (human); test: competition vs 125I-peptide, purified class II MHC
# T10 chain 1: not shown
# T10 chain 2: not shown
# [15] = target: T11, HLA-DR7 (DRB1*0701), purified from cell line PITOUT (human); test: competition vs 125I-peptide, purified class II MHC
# T11 chain 1: not shown
# T11 chain 2: not shown
binder,measurement,setting,value
[dA]A[Cha]AAAATLKAA[dA] [760.57],IC50,[1],5260 nM
same,IC50,[2],78 nM
same,IC50,[3],120 nM
same,IC50,[4],2 nM
same,IC50,[5],78 nM
same,IC50,[6],4.5 nM
same,IC50,[7],3300 nM
AKFVAAWTLKAAA (modifications not checked) [1024.03],IC50,[8],18 nM
same,IC50,[2],3500 nM
same,IC50,[4],2 nM
HSLGKWLGHPDKF (modifications not checked) [PLP 139-151],IC50,[3],86 nM
NTDGSTDYGILQINSR (modifications not checked) [HEL46-61],IC50,[1],20 nM
same,IC50,[9],7000 nM
same,IC50,[10],8500 nM
[dA]A[Cha]AAAKTAAAA[dA] [760.50],IC50,[8],6.1 nM
same,IC50,[9],200 nM
B1,fold increase in reactivity vs 760.57,[11],3 fold
same,fold increase in reactivity vs 760.57,[7],30 to 100 fold
B2,fold increase in binding vs 760.57,[11],2 to 4 fold
same,fold increase in reactivity vs 760.57,[7],100 fold
B3,fold increase in binding vs 760.57,[11],2 to 4 fold
same,fold increase in reactivity vs 760.57,[7],100 fold
[dA]A[Cha]AAEATLKAA[dA]-NH2 [906.19],IC50,[11],1500 nM
B4,fold decrease of binding activity vs 760.57,[6],8 fold
B5,fold reduction of binding vs 760.57,[5],30 fold
B6,fold loss of binding reactivity vs 760.57,[8],10 fold
same,fold loss of binding reactivity vs 760.57,[4],7 fold
same,fold loss of binding reactivity vs 760.57,[5],10 fold
same,fold loss of binding reactivity vs 760.57,[6],8 fold
B7,fold increase in reactivity vs 760.57,[11],8 fold
same,fold increase in reactivity vs 760.57,[7],40 fold
"[dA]K[14]VKANTLKAA[dA]-NH2 (reading uncertain; also: printed as aK(14)VKANTLKAAa-NH2) [peptide 965.011, aK(14)…a-NH2]",IC50,[12],11.8 nM
same,IC50,[13],592 nM
"[dA]K[14]VKANTLKAA[dA]-NH2 (reading uncertain; also: printed as aK(14)VKANTLKAAa-NH2) [peptide 965.012, aK(14)…a-NH2]",IC50,[14],2.1 nM
same,IC50,[12],2.2 nM
same,IC50,[13],4590 nM
"[dA]K[14]VKAWTLKAA[dA]-NH2 (reading uncertain; also: printed as aK(14)VKAWTLKAAa-NH2) [peptide 965.022, aK(14)…a-NH2]",IC50,[14],0.8 nM
same,IC50,[12],1.1 nM
"[dA]K[14]VWANTLKAA[dA]-NH2 (reading uncertain; also: printed as aK(14)VWANTLKAAa-NH2) [peptide 965.031, aK(14)…a-NH2]",IC50,[14],2.1 nM
same,IC50,[12],8.3 nM
"[dA]K[14]VWANTLKAA[dA]-NH2 (reading uncertain; also: printed as aK(14)VWANTLKAAa-NH2) [peptide 965.032, aK(14)…a-NH2]",IC50,[14],0.7 nM
same,IC50,[12],2.9 nM
same,IC50,[13],849 nM
"[dA]K[14]VYAWTLKAA[dA]-NH2 (reading uncertain; also: printed as aK(14)VYAWTLKAAa-NH2) [peptide 965.051, aK(14)…a-NH2]",IC50,[14],0.3 nM
same,IC50,[15],833 nM
same,IC50,[12],5.7 nM
"[dA]K[14]VYAWTLKAA[dA]-NH2 (reading uncertain; also: printed as aK(14)VYAWTLKAAa-NH2) [peptide 965.052, aK(14)…a-NH2]",IC50,[14],0.8 nM
same,IC50,[15],25.5 nM
same,IC50,[12],6.9 nM

# From patent publication US6413935
